Results published in patent US20030204066A1.

Molecular target: human tumor necrosis factor-α (TNFα) (human) (UniProt P01375)
Assay: cell-based or functional assay

human tumor necrosis factor-α (TNFα) (human), sequence (P01375 77-233): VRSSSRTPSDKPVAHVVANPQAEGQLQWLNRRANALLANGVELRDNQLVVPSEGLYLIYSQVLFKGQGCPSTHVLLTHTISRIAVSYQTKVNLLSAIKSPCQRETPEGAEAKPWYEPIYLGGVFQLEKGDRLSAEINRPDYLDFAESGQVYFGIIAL

B1: chimeric mouse/human IgG1 anti-platelet mAb (7E3) (antibody, INN chains, looked up, V domains shown)
VH: EVQLQQSGTVLARPGASVKMSCEASGYTFTNYWMHWVKQRPGQGLEWIGAIYPGNSDTSYIQKFKGKAKLTAVTSTTSVYMELSSLTNEDSAVYYCTLYDGYYVFAYWGQGTLVTVSA
VL: EIVLTQSPVTLSVTPGDSVSLSCRASRDISNNLHWFQQTSHESPRLLIKYASQSMSGIPSRFSGSGSGTDFTLSINSVETEDFGMYFCQQTNSWPYTFGGGTKLEIK
modifications: chimeric IgG1
IL-6 secreted by FS-4 fibroblasts (ng/ml) at 0.3 ng/ml TNF, 4 µg/ml antibody: 1.6 ng/mL | IL-6 secreted by FS-4 fibroblasts (ng/ml) at 1.5 ng/ml TNF, 4 µg/ml antibody: 1.96 ng/mL | IL-6 secreted by FS-4 fibroblasts (ng/ml) at 7.5 ng/ml TNF, 4 µg/ml antibody: 2.16 ng/mL
